In the supplement of paper PMC10567573:

B1: ZNF232 (parent)
chain: GKAYGWCSELIRHRRVHARKEPSH

Variants of: B1
Assay: protein stability index of a GFP-peptide fusion (GPS, HEK-293T) (PSI 1-6); higher = more stable
Settings: c terminus: a fixed tail appended
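Further: lentivirally expressed fusions sorted by FACS into six bins by GFP to DsRed ratio, PSI derived from sequencing read proportions per bin multiplied by bin number.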

Protein stability index: each site, then its substitutions
S23: C 2.58 | D 3.66 | A 2.61
H17: Q 3.04 | R 3.03 | N 2.72 | K 3.32 | S 2.76 | D 3.36 | L 2.99 | M 2.75 | Y 2.16 | P 3.02 | C 3.46 | G 3.57 | A 2.77 | W 1.87 | F 2.49 | T 3.28 | I 2.51 | E 3.28 | V 2.84
E9: A 2.74 | H 3.25 | W 1.81 | K 2.96 | M 1.66 | C 1.76 | Y 2.18 | S 3.02 | F 1.59 | I 2.51 | R 2.83 | Q 2.64 | T 3.53 | N 2.84 | P 3.24 | G 3.03 | L 2.73 | V 1.21 | D 3.12
L10: A 3.08 | H 3.64 | M 3.43 | P 3.8 | T 3.16 | Y 2.22 | D 3.5 | V 3.54 | G 3.55 | W 2.77 | I 2.84 | R 3.35 | C 2.15 | S 3.4 | F 2.6 | N 3.54 | E 2.84 | K 3.08 | Q 2.78
R12: I 2.22 | Y 2.32 | W 2.14 | F 2.41 | L 2.65 | H 3.24 | V 2.31 | N 3.36 | Q 3.02 | T 3.1 | D 3.03 | G 2.92 | K 3.17 | E 3.54 | A 2.82 | P 3.21 | C 2.57 | M 2.25 | S 3.16
C7: S 3.82 | V 2.06 | Q 3.18 | Y 2.57 | N 4.19 | P 3.61 | W 3.05 | K 3.54 | D 3.42 | G 3.89 | L 2.34 | E 3.67 | T 3.26 | H 3.37 | R 3.59 | M 2.62 | A 3.3 | F 2.42 | I 2.17
S8: L 2.45 | T 3.25 | P 3.21 | G 2.5 | E 3.2 | V 2.02 | Y 2.34 | C 2.14 | F 1.97 | K 2.6 | I 1.57 | R 2.99 | H 2.69 | W 1.97 | Q 3.36 | D 3.22 | N 3.21 | A 2.67 | M 1.94
K20: L 1.93 | G 2.86 | C 2.6 | A 3.19 | N 2.58 | E 3.07 | T 3.28 | R 2.12 | Y 1.86 | D 3.45 | W 1.82 | I 2.05 | H 2.97 | S 2.86 | F 1.9 | M 2.18 | P 2.62 | Q 2.8 | V 3.22
G5: W 2.14 | S 2.99 | V 2.22 | T 2.79 | R 2.9 | Y 2.13 | P 3.25 | Q 3.09
W6: A 3.49 | D 4.05 | Y 2.95 | M 3.82 | N 3.98 | C 2.6 | R 3.7 | E 3.35 | S 3.65 | L 2.95 | F 3.65 | V 3.59 | G 3.96 | P 4.61 | Q 3.81 | K 4.02 | H 3.67 | T 3.69 | I 3.27
R14: I 2.04 | Y 2.05 | A 2.9 | Q 3.08 | F 2.33 | S 2.27 | C 1.86 | D 2.65 | N 3.23 | W 1.94 | E 2.86 | K 2.61 | G 2.72 | P 2.95 | L 2.03 | T 2.62 | M 1.73 | V 2.45 | H 2.77
E21: H 2.63 | S 3.3 | D 2.75 | N 3.24 | G 2.58 | R 3.3 | C 2.36 | T 2.69 | Q 2.69 | M 2.37 | Y 2.81 | W 2.19 | V 3.1 | P 2.79 | A 2.92 | I 2.46 | K 3.15 | L 1.91 | F 2.04
I11: K 3.16 | S 3.8 | M 3.18 | G 3.35 | F 2.79 | D 3.9 | H 3.31 | L 2.61 | N 3.02 | Y 2.9 | P 3.11 | W 2.79 | A 3.41 | C 3.37 | T 3.34 | Q 4.02 | V 2.92 | E 3.43 | R 3.67
R15: S 3.36 | P 3.25 | Q 3.07 | F 2.45 | I 2.56 | L 2.02 | D 2.61 | V 2.44 | K 3 | Y 2.38 | H 2.92 | A 2.81 | C 1.99 | W 2.25 | E 3.28 | G 2.61 | N 2.93 | M 3.16 | T 3.19
V16: C 2.52 | P 3.35 | S 3.48 | W 2.55 | L 2.9 | H 3.41 | K 3.22 | T 3.07 | G 3.53 | N 3.26 | I 2.42 | R 3.67 | M 3.43 | D 3.49 | A 2.71 | Q 3.53 | Y 2.74 | E 3.16 | F 2.87
A18: E 3.74 | Y 2.76 | V 2.59 | Q 2.81 | C 2.88 | H 2.86 | T 3.28 | R 3.28 | F 2.49 | L 2.13 | D 3.84 | M 3.25 | P 3.33 | G 3 | S 3.37 | K 3.19 | W 1.83 | N 2.84 | I 3.04
H13: Y 2.24 | K 3.29 | Q 3.22 | F 1.94 | S 2.57 | P 2.75 | A 2.62 | M 2.36 | V 2.1 | W 3.04 | E 3.42 | G 3.46 | R 3.53 | N 2.69 | L 1.97 | T 3.16 | C 2.39 | D 2.99 | I 1.89
P22: A 3.39 | C 2.52 | H 3.42 | I 2.27 | Y 3.58 | D 3.14 | M 2.3 | F 1.8 | T 3.02 | W 1.79 | N 2.98 | G 2.71 | L 2.93 | V 2.82 | Q 3.38 | R 3.17 | K 2.92 | E 4.22 | S 3.21
R19: A 2.54 | I 3.09 | T 2.89 | P 2.37 | G 3.01 | W 2.15 | S 2.8 | D 3.31 | N 3.81 | Q 3.44 | E 3.53 | Y 1.81 | C 2.68 | L 1.94 | M 3.18 | V 2.52 | K 2.82 | F 2.15 | H 2.66
